{
  "source": "patent US20200339680A1",
  "about": "(Alector, published 2020)",
  "binders": {"B1": {"name": "TM-22 (antibody, V domains shown)", "VH": "QVQLQQSGPELVKPGASVKISCKASGYRFTSYYIHWVKQRPGQGLEWIGWIYPGNGITNYNEKFKGKATLTADTSSSTAYMQLSSLTSEDSAVYYCASPYYGIRNCYFDVWGTGTTVTVSS", "VL": "DVLMTQTPLSLPVSLGDHASISCRSGQSIVHSNGNTYLEWYLQKPGQSPKLLIYKVSNRFSGVPDRFSGSGSGTDFTLKISRVEAEDLGIYYCFQGSHVPWTFGGGTKLEIK"}, "B2": {"name": "TM-19 (antibody, V domains shown)", "VH": "DVQLQQSGAELVRPGASVKLSCTASGFNIKDYYMYWVKQRPEQGLEWIGRIDPEDGDTENAPKFRGMATMTADTSSNTAYLQLNSLTSEDTAVYYCTTRIGNLYHVMDYWGHGTSVTVSS", "VL": "B1 VL with H18Q, G26S, S48A, Y54D, S57F, I90V, W101F, G105S"}, "B3": {"name": "TM-21 (antibody, V domains shown)", "VH": "EVQLVESGGGLVKPGGSLKLSCAASGFTFSNYAMSWVRETPEKRLEWVAFISDGGGYIYYADNVKDRFTISRDNAKNNLYLQMRHLKSEDTAMYYCARDGGTGFTYWGQGTLVTVSV", "VL": "DIVMTQAAFSNPVTLGTSASISCRSSKSLLHSNGITYLFWYLQKPGQSPQLLIYQMSNLASGVPDRFSSSGSGTDFTLRISRVEAEDVGVYYCVQNLELPYTFGGGTKLEIK"}, "B4": {"name": "TM-13 (antibody, V domains shown)", "VH": "QVQLQQSGAELVKPGASVKMSCKASGYTFTTFPIEWMKQSHGKGLEWIGNFHPYNDDTKYNEKFKGKATLTVDKSSSTVYLDLSRLTSDDSAVYYCARYFYGGMDYWGQGTSVTVSS", "VL": "DIQMTQSPASLSVSVGETVTITCRASENIYSSLGWYQQKQGESPQLLVFAATNLADGVPSRFSGSGSGTQYSLKINSLQSEDFGTYYCQHLWSIPWTFGGGTRLEIK"}, "B5": {"name": "TM-25 (antibody, V domains shown)", "VH": "EVQLVESGGDLVKPGGSLRLSCAASGFTFSGYGMSWIRQTPDKRLEWVATISSGGRYTVYPDSVKGRFTMSRDNVKNTLYLQMSSLKSEDTALYYCARDNFYSYAMDYWGLGTSVTVSA", "VL": "DIVMTQAAFSNPVTLGTSASISCRSSKSLLHSNGITYLFWYLQKPGQSPQLLIYQMSNLASGVPDRFSSSGSGTDFTLRISRVEAEDVGVYYCAQNLELWTFGGGTKLEIK"}, "B6": {"name": "TM-23 (antibody, V domains shown)", "VH": "QVQLQQSGAELIRPGTSVKVSCKASGYAFTNYLIEWVKKRPGQGLEWIGVINPGSGITNYNEKFKGKATLTADKSSSTAYMQLSSLTSEDSAVYFCARSDFITTVVADYWGQGTTVTVSS", "VL": "DIVVTQTPLSLPVSFGDQVSISCRSSQSLTNYYGNTYLSWYLHKPGQSPQLLIYGISNRFSGVPDRFSGSGSGTDFTLKISTIKPEDLGMYYCLQGTHQPRTFGGGTKLEIK"}, "B7": {"name": "TM-26 (antibody, V domains shown)", "VH": "B6 VH", "VL": "B6 VL"}},
  "note": "Where a chain is given by its changes, count along the chain named.",
  "data": [
    {"target": "T1, human TMEM106B (human, UniProt Q9NUM4 2-274)", "T1 construct": "full-length, transiently expressed on HEK293 cells, or natively expressed on HeLa, U251 and A549 cells (the cell is named under assay); also the source of the Pepscan peptides; also called huTMEM106B; huTMEM", "assay": "FACS HEK+huTMEM 0.1 ug/ml (2nd column so headed);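 note: flow cytometry binding of purified anti-TMEM106B mouse IgG to HEK293 cells transiently transfected with TMEM106B, read as median fluorescence intensity on live (propidium iodide-negative) cells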", "units": {"MFI": "MFI"}, "experimental": "Purified anti-TMEM106B antibodies were evaluated for their binding affinity to various TMEM106B-expressing cell lines including HEK293 transiently transfected with human/cyno/mouse TMEM106B, as well as HeLa cells and A549 cells. Antibodies tested for this experiment were mouse IgGs purified from hybridoma supernatant. Affinity binding to cells was determined as follows. Briefly, 1×10\\hat{ }5 cells were aliquoted per well in 96-well round bottom plates and incubated with 50 μL of purified anti-TMEM106B antibody at various concentrations (10× dilutions starting at 10 μg/ml) in FACS buffer (PBS+2% FBS+1 mM EDTA). […] Sorting was performed on a iQue (Intellicyt), with sort gates drawn to exclude dead (propidium iodide+) cells. Binding data was analyzed using median fluorescent intensity (MFI) and graphed in Prism. Values presented are MFI.", "values": [
      {"binder": "B1", "MFI": 500},
      {"binder": "B2", "MFI": 3340},
      {"binder": "B3", "MFI": 2350},
      {"binder": "B4", "MFI": 2900},
      {"binder": "B5", "MFI": 4310},
      {"binder": "B6", "MFI": 1100},
      {"binder": "B7", "MFI": 1000}
    ]},
    {"target": "T1, human TMEM106B", "assay": "FACS HEK+huTMEM 1.0 ug/ml;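 note: binding of purified mouse IgG antibodies to HEK293 cells transiently expressing human TMEM106B, read by flow cytometry as median fluorescence intensity of live, propidium iodide-negative cells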", "units": {"MFI": "MFI"}, "values": [
      {"binder": "B1", "MFI": 2100},
      {"binder": "B2", "MFI": 66800},
      {"binder": "B3", "MFI": 69400},
      {"binder": "B4", "MFI": 67100},
      {"binder": "B5", "MFI": 64700},
      {"binder": "B6", "MFI": 3900},
      {"binder": "B7", "MFI": 3340}
    ]},
    {"target": "T2, mouse TMEM106B (mouse, UniProt Q80X71 2-275)", "T2 construct": "transiently expressed on HEK293 cells, or native on mouse Neuro2a cells; also called moTMEM106B; murine TMEM106B", "assay": "FACS Neuro2a;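 note: flow cytometry of antibody binding to cells: hybridoma supernatant or purified antibody at 10 µg/ml, 1 h on ice, secondary detection, propidium iodide–positive dead cells gated out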", "units": {"MFI": "MFI"}, "experimental": "(§1) All cells were cultured in either T75 or T150 flasks. […] The enzyme was quenched by addition of fresh media, and the cells were then distributed into 96-well plates for FACS analysis.\n(§2) FACS analysis was performed as follows. Each cell type was aliquoted in 96-well round bottom plates (2×10^5 cells per well), washed once with FACS buffer (PBS+2% FBS+1 mM EDTA), and incubated with 50 μL of hybridoma supernatant or purified antibody (10 μg/ml in FACS buffer) on ice for 1 hour. […] Following this secondary incubation, the cells were again washed 2× with ice-cold FACS buffer and resuspended in a final volume of 50 μL of FACS buffer+0.25 μl/well propidium iodide (Fisher Scientific #4BDB556463). Analysis was performed on a FACSCanto system (BD Biosciences) or iQue (Intellicyt), with sort gates drawn to exclude dead (i.e., propidium iodide positive) cells.", "values": [
      {"binder": "B1", "MFI": 400},
      {"binder": "B2", "MFI": 2140},
      {"binder": "B3", "MFI": 706},
      {"binder": "B4", "MFI": 927},
      {"binder": "B5", "MFI": 354},
      {"binder": "B6", "MFI": 333},
      {"binder": "B7", "MFI": 324}
    ]},
    {"target": "T1, human TMEM106B", "assay": "FACS A549;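 note: flow cytometry of cells incubated on ice for 1 h with hybridoma supernatant or purified antibody at 10 µg/mL, dead propidium iodide-positive cells gated out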", "units": {"MFI": "MFI"}, "values": [
      {"binder": "B1", "MFI": 1570},
      {"binder": "B2", "MFI": 1820},
      {"binder": "B3", "MFI": 1030},
      {"binder": "B4", "MFI": 1260},
      {"binder": "B5", "MFI": 1700},
      {"binder": "B6", "MFI": 1090},
      {"binder": "B7", "MFI": 952}
    ]},
    {"target": "T1, human TMEM106B", "assay": "FACS A549 1 ug/ml", "units": {"MFI": "MFI"}, "values": [
      {"binder": "B1", "MFI": 399},
      {"binder": "B2", "MFI": 3640},
      {"binder": "B3", "MFI": 2030},
      {"binder": "B4", "MFI": 1950},
      {"binder": "B5", "MFI": 4530},
      {"binder": "B6", "MFI": 398},
      {"binder": "B7", "MFI": 380}
    ]},
    {"target": "T1, human TMEM106B", "assay": "FACS HEK+huTMEM 10 ug/ml;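 note: flow cytometric binding of purified mouse IgG antibodies to HEK293 cells transiently expressing human TMEM106B, read as median fluorescence intensity on live cells with propidium iodide-positive cells excluded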", "units": {"MFI": "MFI"}, "values": [
      {"binder": "B1", "MFI": 3580},
      {"binder": "B2", "MFI": 79000},
      {"binder": "B3", "MFI": 69400},
      {"binder": "B4", "MFI": 67500},
      {"binder": "B5", "MFI": 60300},
      {"binder": "B6", "MFI": 12400},
      {"binder": "B7", "MFI": 3850}
    ]},
    {"target": "T1, human TMEM106B", "assay": "FACS A549 10 ug/ml", "units": {"MFI": "MFI"}, "values": [
      {"binder": "B1", "MFI": 478},
      {"binder": "B2", "MFI": 4960},
      {"binder": "B3", "MFI": 4230},
      {"binder": "B4", "MFI": 3890},
      {"binder": "B5", "MFI": 7000},
      {"binder": "B6", "MFI": 757},
      {"binder": "B7", "MFI": 509}
    ]},
    {"target": "T1, human TMEM106B", "assay": "FACS HEK+huTMEM 0.1 ug/ml;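 note: flow cytometry binding of purified mouse IgG antibodies to HEK293 cells transiently expressing TMEM106B, read as median fluorescence intensity on live cells (propidium iodide negative gating)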", "units": {"MFI": "MFI"}, "values": [
      {"binder": "B1", "MFI": 833},
      {"binder": "B2", "MFI": 29800},
      {"binder": "B3", "MFI": 15600},
      {"binder": "B4", "MFI": 19100},
      {"binder": "B5", "MFI": 32800},
      {"binder": "B6", "MFI": 2410},
      {"binder": "B7", "MFI": 1960}
    ]},
    {"target": "T1, human TMEM106B", "assay": "FACS HeLa", "units": {"MFI": "MFI"}, "experimental": "as §1, §2", "values": [
      {"binder": "B1", "MFI": 408},
      {"binder": "B2", "MFI": 2430},
      {"binder": "B3", "MFI": 1200},
      {"binder": "B4", "MFI": 1380},
      {"binder": "B5", "MFI": 2560},
      {"binder": "B6", "MFI": 308},
      {"binder": "B7", "MFI": 384}
    ]},
    {"target": "T1, human TMEM106B", "assay": "FACS U251", "units": {"MFI": "MFI"}, "values": [
      {"binder": "B1", "MFI": 313},
      {"binder": "B2", "MFI": 878},
      {"binder": "B3", "MFI": 672},
      {"binder": "B4", "MFI": 787},
      {"binder": "B5", "MFI": 1110},
      {"binder": "B6", "MFI": 278},
      {"binder": "B7", "MFI": 300}
    ]}
  ]
}
